# Data reported in patent US20020159989A1 (BETH ISRAEL DEACONESS MEDICAL CENTER, published 2002).
# B1: peptide of SEQ ID NO:1, expressed as a GAL4 activation domain fusion (prey clone from the pACT2 NIH3T3 cDNA library) (peptide)
# chain: ANFNQSGNIADSSLSFTFTNSSNGPNLITTQTNSQALSQPIASSNVHDNFMNNEITASKIDDGNNSKPLSPGWTDQTAYNAFGITTGMFNTTTMDDVYNYLFDDEDTPPNPKKEAPWNCCPVSCCGNCCFFRALQSCPQG
# notes: range 768-881; Yeast two-hybrid prey; also called peptide of the invention
# Molecular target: T1, mouse TSP-1-TSR, expressed as a GAL4 DNA binding domain fusion (pAS2-1TSP1 type 1 construct) (mouse, UniProt P04386 1-147; P35441 377-549)
# T1 construct: range 1-147;domain: TSR; also called TSR domain of TSP-1; bait
# Experiment: yeast two-hybrid counter-screen (HIS3 / lacZ reporters)
# T1 sequence (P04386 other isoform, or with tags, fused parts or gaps limits assumed): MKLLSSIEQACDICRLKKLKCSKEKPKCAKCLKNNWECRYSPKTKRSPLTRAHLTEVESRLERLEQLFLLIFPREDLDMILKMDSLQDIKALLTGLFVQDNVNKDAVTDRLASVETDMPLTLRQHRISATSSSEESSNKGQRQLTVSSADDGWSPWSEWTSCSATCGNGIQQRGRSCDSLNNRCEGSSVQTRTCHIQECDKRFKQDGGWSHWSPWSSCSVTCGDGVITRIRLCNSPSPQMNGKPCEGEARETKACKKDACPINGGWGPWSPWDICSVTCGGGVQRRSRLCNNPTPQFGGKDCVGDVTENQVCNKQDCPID
binder,measurement,value
B1,binding result,no binding
